# Assay results published in US20250066498A1 (GO THERAPEUTICS, published 2025).
# Changes are numbered by the printed parent chain. Like-named read-outs stand apart in the source and are kept apart here. Ends that are not written are not given here. GalNAc = N-acetylgalactosamine O-linked to a serine or threonine side chain
# T1: Tn-glycosylated LAMP1 on COSMC knock-out cells (human, UniProt P11279 29-417, Truncated O-glycans (Tn, GalNAc alpha1-O-Ser/Thr), because the COSMC chaperone is knocked out)
# T1 sequence (looked up): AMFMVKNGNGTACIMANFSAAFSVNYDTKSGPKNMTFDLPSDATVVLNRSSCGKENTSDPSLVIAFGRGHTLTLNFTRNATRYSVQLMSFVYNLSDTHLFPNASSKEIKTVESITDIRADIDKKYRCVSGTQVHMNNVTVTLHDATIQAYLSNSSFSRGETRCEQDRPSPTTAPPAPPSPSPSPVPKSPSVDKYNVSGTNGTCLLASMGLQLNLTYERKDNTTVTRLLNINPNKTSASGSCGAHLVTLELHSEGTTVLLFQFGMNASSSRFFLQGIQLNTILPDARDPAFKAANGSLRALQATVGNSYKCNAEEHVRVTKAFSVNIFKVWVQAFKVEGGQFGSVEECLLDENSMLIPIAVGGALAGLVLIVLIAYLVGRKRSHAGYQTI
# T2: LAMP1 without Tn glycans on wild type cells (human, UniProt P11279 29-417, No Tn antigen (the wild type cells are Tn-negative))
# T2 sequence (looked up): T1 sequence (looked up)
# T3: podoplanin glycopeptide ERGTKPPLEELSGK
# T3 construct: also called PDPN glycopeptide; Tn antigen derived from podoplanin
# T3 peptide: ERGT(GalNAc)KPPLEELSGK
# T4: LAMP1-Tn peptide Biotin-CEQDRPSPTTAPPAPPSPSP (human, N-terminal biotin; O-linked GalNAc on the serine at position 7 and the threonines at positions 9 and 10)
# T4 construct: Synthetic 20-mer glycopeptide made by FMOC synthesis; also called LAMP1 glycopeptide; glycosylated LAMP1 peptide
# T4 peptide: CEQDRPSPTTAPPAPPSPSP
# B1: 13G2-CART (other)
# chain: DVVMTQIPLSLCVSLGDQASISCRSSQSLVHNNGNTYLHWYLQKPGQSPKLLINKVSKRFTGVPDRFSGSGSGTDFTLKISRVEAEDLGVYFCSQSTHVPRTFGGGTKLEIKGGGGSGGGGSGGGGSEVRLEESGGGLVQPGGSMKLSCVASGFTFSDAWMDWVRQSPERGLEWVAELRSKTFNHATYYAESVRGRFTISRDDSKSTVYLQMNSLRAEDTGIYYCSPNWDEGFAYWGQGTLVTVSATTTPAPRPPTPAPTIASQPLSLRPEACRPAAGGAVHTRGLDFACDFWVLVVVGGVLACYSLLVTVAFIIFWVRSKRSRLLHSDYMNMTPRRPGPTRKHYQPYAPPRDFAAYRSRVKFSRSADAPAYQQGQNQLYNELNLGRREEYDVLDKRRGRDPEMGGKPRRKNPQEGLYNELQKDKMAEAYSEIGMKGERRRGKGHDGLYQGLSTATKDTYDALHMQALPPR
# B2: 13C3-CART (other)
# chain: DVVMTQTPLSLPVSLGDQASISCRSSQSLVHSNGNTYLHWYLQKPGQSPKLLINKVSNRFSGVPDRFSGSGSGTDFTLKISRVEAEDLGVYFCSQSTHVPRTFGGGTKLEIKGGGGSGGGGSGGGGSEVKLEDSGGGLVQPGGSMKLSCAASGFTFSDAWMDWVRHSPEKGLEWVAELRSKAFNHATYYAESVKGRFTISRDDSKSTVYLQMNSLRAEDTGIYYCTPNWDEGFAYWGQGTLVTVSATTTPAPRPPTPAPTIASQPLSLRPEACRPAAGGAVHTRGLDFACDFWVLVVVGGVLACYSLLVTVAFIIFWVRSKRSRLLHSDYMNMTPRRPGPTRKHYQPYAPPRDFAAYRSRVKFSRSADAPAYQQGQNQLYNELNLGRREEYDVLDKRRGRDPEMGGKPRRKNPQEGLYNELQKDKMAEAYSEIGMKGERRRGKGHDGLYQGLSTATKDTYDALHMQALPPR
# B3: 13G2-ADC (GGFG-DX8951) (other)
# VH: EVRLEESGGGLVQPGGSMKLSCVASGFTFSDAWMDWVRQSPERGLEWVAELRSKTFNHATYYAESVRGRFTISRDDSKSTVYLQMNSLRAEDTGIYYCSPNWDEGFAYWGQGTLVTVSA
# VL: DVVMTQIPLSLCVSLGDQASISCRSSQSLVHNNGNTYLHWYLQKPGQSPKLLINKVSKRFTGVPDRFSGSGSGTDFTLKISRVEAEDLGVYFCSQSTHVPRTFGGGTKLEIK
# modifications: MC-GGFG-DX8951 covalently attached to the antibody (maleimide); site not stated; DAR ~5.6
# B4: 13C3-ADC (GGFG-DX8951) (other)
# VH: B3 VH with R3K, E6D, V23A, Q39H, R43K, T55A, R67K, S99T
# VL: B3 VL with I7T, C12P, N32S, K58N, T61S
# modifications: MC-GGFG-DX8951 covalently attached to the antibody (maleimide); site not stated; DAR ~3.1
# B5: GO-13C3 mouse (vc-PAB-MMAE ADC) (other)
# VH: B3 VH with R3K, E6D, V23A, Q39H, R43K, T55A, R67K, S99T
# VL: B3 VL with I7T, C12P, N32S, K58N, T61S
# modifications: Cleavable MMAE with maleimide (vc-PAB-MMAE) covalently linked; site not stated; DAR ~4
# B6: 3C7-ADC (GGFG-DX8951) (other)
# VH: EVKLEESGGGLVQPGGSMKVSCGASGFTFSDAWMDWVRQSPEKGLEWVAEMRSKAFNHAIYYAESVKGRFTISRDDSKSRVYLQMNLLRPEDTGIYYCTPNWDEGFAYWGQGTLVTVSA
# VL: B3 VL with V3M, M4L, I7T, C12P, N32S, K58N, T61F
# modifications: MC-GGFG-DX8951 covalently attached to the antibody (maleimide); site not stated; the DAR could not be calculated
# B7: mAb237 (antibody, V domains shown)
# VH: QVQLQQSGGGLVQPGGSMKIFCAASGFTFSDAWMDWVRQSPEKGLEWVAEIRNKANNHETYYAESVKGRFTITRDDSKSRMSLQMNSLRAEDTGIYYCSGGKVRNAYWGQGTTVTVSS
# VL: DIQLTQTPLSLPVSLGDQASISCRSSQSLVHSVGNTYLHWYLQKPGQSPKLLIYKVSNRFSGVPDRFSGSGSGTDFTLKISSVEAEDLGVYFCSQSTHVPTFGGGTKLEIK
# notes: Recombinant mouse antibody bought from Creative Biolabs (Brooks et al., 2010), specific for the podoplanin Tn glycopeptide; also called wild type mAb237
# B8: GO-13C3-Human-v1 (vc-PAB-MMAE ADC) (other)
# VH: EVQLVESGGGLVQPGGSLRLSCAASGFTFSDAWMDWVRHAPGKGLEWVAELRSKAFNHATYYAESVKGRFTISRDDSKNSVYLQMNSLKTEDTAVYYCTPNWDEGFAYWGQGTLVTVSS
# VL: DVVMTQSPLSLPVTLGQPASISCRSSQSLVHSNGNTYLHWYQQRPGQSPRLLINKVSNRFSGVPDRFSGSGSGTDFTLKISRVEAEDVGVYFCSQSTHVPRTFGGGTKVEIK
# modifications: Cleavable MMAE with maleimide (vc-PAB-MMAE) covalently linked; site not stated; DAR ~4
# B9: 13C3-HV-23-B/13C3 KV2-A (antibody, V domains shown)
# VH: B8 VH with V5L, H39Q, A49S, S80T, V81L, K89R, T90A
# VL: B8 VL
# notes: Humanized 13C3; also called HV23B/KV2A; humanized 13C3 candidate 3
# B10: GO-13C3-Human-v2 (vc-PAB-MMAE ADC) (other)
# VH: B8 VH with V5L, H39Q, A49S, S80T, V81L, K89R, T90A
# VL: B8 VL
# modifications: Cleavable MMAE with maleimide (vc-PAB-MMAE) covalently linked; site not stated; DAR ~4
# B11: 13C3-HV-23-C/13C3 KV2-A (antibody, V domains shown)
# VH: B8 VH with V5L, H39Q, A49S, L51I, K54S, S80T, V81L, K89R, T90A
# VL: B8 VL
# notes: Humanized 13C3; also called humanized 13C3 candidate 5
# B12: 13C3-HV-72-B/13C3 KV2-A (antibody, V domains shown)
# VH: B8 VH with H39Q, A49G, V81L
# VL: B8 VL
# notes: Humanized 13C3; also called humanized 13C3 candidate 4
# B13: 13C3-HV-72-A/13C3 KV2-A (antibody, V domains shown)
# VH: B8 VH
# VL: B8 VL
# notes: Humanized 13C3; also called HV-72A/KV2A; humanized 13C3 candidate 2
# Columns and labels:
# [1] = molecular target: T1, Tn-glycosylated LAMP1 on COSMC …; test: cell-based or functional assay
# [2] = molecular target: T1, Tn-glycosylated LAMP1 on COSMC …; test: cell-based or functional assay; remark: listed apart in the source
# [3] = molecular target: T2, LAMP1 without Tn glycans on wild type …; test: cell-based or functional assay
# [4] = molecular target: T1, Tn-glycosylated LAMP1 on COSMC …; test: cell-based or functional assay; remark: listed apart in the source
# [5] = molecular target: T2, LAMP1 without Tn glycans on wild type …; test: cell-based or functional assay; remark: listed apart in the source
# [6] = molecular target: T3, podoplanin glycopeptide ERGTKPPLEELSGK; test: BLI (Octet), peptide on biosensor, apparent affinity (Example 3)
# Experimental: Antibody affinity and epitope binning of monoclonal antibodies can be assessed against specific antigens using BLI. […] The affinity is determined by fitting the binding curve to a specific model: a 1:1 monovalent model or a 2:1 bivalent model. The error (>95% confidence) is calculated by how close the generated curve matches the model.
# To characterize the cross-reactivity between mAb237 the anti-glyco-LAMP1 antibodies 3C7, 13C3, and 13G2, the affinities of mAb237, 3C7, 13C3, and 13G2 against the glycosylated LAMP1 peptide, the unglycosylated LAMP1 peptide, and the podoplanin glycopeptide were determined by Octet. Table 8 summarizes the dissociation constants (Kd) for mAb237, 3C7, 13C3, and 13G2 against the glycosylated LAMP1 peptide, the unglycosylated LAMP1 peptide, and the podoplanin glycopeptide. No cross reactivity was observed despite the sequence similarities observed between mAb237 and 3C7, 13C3, and 13G2.
# [7] = molecular target: T4, LAMP1-Tn peptide …; test: ELISA on plate-coated LAMP1-GP
# Experimental: 96-well Corning high bind ELISA microplates plates were coated with LAMP1 peptides titrated in 0.2 M bicarbonate buffer, pH 9.4 overnight at 4° C. in concentrations ranging from 0.08 μg/ml to 10 μg/ml. BSA was used as a control/measure of background. The plates were then blocked with SuperBlock™ (Thermo Fisher) for 1 hr at room temperature. After plate washing, the humanized variants of 13C3 were incubated on the ELISA plate for 1 hour. All tested variants were expressed and purified using conventional methods. Briefly, Expi-293 cells were transiently transfected with heavy and light chain constructs, antibodies were secreted into supernatant and purified using Protein A agarose beads. The plates were then washed, and then incubated with secondary antibody (1/3000 Goat Anti-mouse IgG (H+L) HRP (Abcam 62-6520)) for 1 hour. The plate was then washed and color was developed with 1-Step™ Ultra TMB (Thermo Fisher) for 2 minutes. Color development was then stopped with 2 N Sulfuric Acid. Absorbance at 450 nm was then measured.
# [8] = molecular target: T4, LAMP1-Tn peptide …; test: BLI (Octet), LAMP1-GP on biosensor
binder,measurement,setting,value
B1,"Time to kill 50% of cells (KT50), HaCAT COSMC-KO target cells, T cell ratio 10:1",[1],8.75 h
B2,"Time to kill 50% of cells (KT50), HaCAT COSMC-KO target cells, T cell ratio 10:1",[1],7.3 h
B3,"IC50 for cell death, T47D COSMC-KO cells",[2],5.6 nM
same,"IC50 for cell death, T47D cells",[3],4.4 nM
B4,"IC50 for cell death, T47D COSMC-KO cells",[2],5.6 nM
same,"IC50 for cell death, T47D cells",[3],205 nM
B5,"IC50 for cell death, T47D COSMC-KO cells",[4],4.5 nM
same,"IC50 for cell death, T47D cells",[5],> 100000 nM
B6,"IC50 for cell death, T47D COSMC-KO cells",[2],4.5 nM
same,"IC50 for cell death, T47D cells",[3],504 nM
B7,Kd,[6],1.53 nM
B8,"IC50 for cell death, T47D COSMC-KO cells",[4],5.03 nM
same,"IC50 for cell death, T47D cells",[5],> 100000 nM
B9,EC50,[7],0.0191 mg/L
same,Kd,[8],0.85 nM
B10,"IC50 for cell death, T47D COSMC-KO cells",[4],5.4 nM
same,"IC50 for cell death, T47D cells",[5],> 100000 nM
B11,EC50,[7],0.0155 mg/L
same,Kd,[8],23.5 nM
B12,EC50,[7],0.0257 mg/L
same,Kd,[8],8.2 nM
B13,EC50,[7],0.0262 mg/L
same,Kd,[8],3.1 nM
